Consider twelve molecules from patent US20110182887A1 (AstraZeneca / MedImmune, published 2011).

Where a chain is given by its changes, count along the chain named. In names and notes the source's numbering stands. Where two headings read alike, the source gives them in different places.

For orientation: EC50 (read off the curve) means the concentration that produces a half-maximal response. Lower therefore signals greater potency. The Kd is the constant that tells how readily two partners part at equilibrium. The term koff denotes a measure of how fast the partners let go of each other. The low end stands for a long-lived complex, the high end for a short-lived complex. By kon is commonly meant the rate constant with which the complex forms. The low end stands for slow association, the high end for fast association.

For experiment [1], the target named is T1, human CD22 (hCD22) expressed on the cell surface (human, UniProt P20273 20-847).
T1 construct: whole, on cells; One molecule is used for all cell-surface formats; also called human CD22 antigen; BHK-CD22
In words: cell ELISA on BHK cells expressing human CD22, COS-7 supernatant, OD 655 nm. Background: An ELISA detects its analyte on a solid surface through an enzyme-linked reagent.

Experiment [2] addresses T1, human CD22 (hCD22) expressed on the …. The description is as above. The source holds these as a separate data set.
For experiment [3] the target is unchanged. Briefly: cell ELISA on BHK cells expressing human CD22, RHOv2 heavy chain expressed with the RKC light chain in COS cells.
Experiment [4] shares this target. Briefly: cell ELISA on BHK cells expressing human CD22, RHOv2A heavy chain expressed with the RKC light chain in COS cells.
The target in experiment [5] is hCD22 (ligand immobilised on the BIAcore CM5 sensor chip) (human, UniProt P20273 20-687, limits assumed). In words: SPR (BIAcore 3000), hCD22 immobilised on CM5 chip, IgG injected, 1:1 model. As for the experimental part:
Binding affinity of HB22.7 and RHOv2ACD/RKA were determined on a BIAcore 3000 instrument (BIAcore, Inc., Uppsala, Sweden). The ligand, hCD22, was prepared at 50 nM in 10 mM NaOAc, pH4 buffer. It was injected onto an EDC/NHS-activated CM5 sensor chip (BIAcore, Inc. Uppsala, Sweden) using a standard immobilization protocol. Following this, any unreacted active ester moieties were quenched using 1M Et-NH2 (ethanolamine; coupling reagents purchased from BIAcore, Inc.). A total of 535 and 689 RUs hCD22 remained bound to two sensor chip surfaces used in these experiments. Separately, a blank surface was prepared on each sensor chip using the identical protocol (minus protein). The blank surfaces were used as a reference cell in the experiments, and served to correct for both non-specific binding and some housekeeping artifacts.
For the kinetic experiments, HB22.7 and RHOv2ACD/RKA were prepared as two dilution series, starting at 22 nM and 100 nM, then diluted three- and two-fold, respectively, down to final concentrations of 0.03 nM and 0.39 nM in HBS-EP buffer (BIAcore, Inc., consisting of the following: 10 mM HEPES buffer, pH7.4, 150 mM NaCl, 3 mM EDTA, and 0.005% P20). Each concentration of IgG was then injected over both the CD22 and reference cell surfaces, which are connected in series. Between injections, surfaces were regenerated with a 1-minute injection of 3M MgCl2.
For orientation: Surface plasmon resonance follows binding to a sensor surface in real time, without labels.

The target in experiment [6] is T1, human CD22 (hCD22) expressed on the …. Briefly: cell ELISA on BHK cells expressing human CD22, OD 655 nm.
Experiment [7] shares this target. In words: cell ELISA on BHK cells expressing human CD22, RHOv2B heavy chain expressed with the RKC light chain in COS cells.
The target is the same in experiment [8]. In words: cell ELISA on BHK cells expressing human CD22, RHOv2C heavy chain expressed with the RKC light chain in COS cells.

B1: HB227RHF heavy chain + chimeric HB22.7 light chain (chL) (antibody, human IgG1, V domains shown)
VH: QVQLQESGPALVKPTQTLTLTCTVSGFSLSDYGVNWIRQPPGKALEWLGIIWGDGRTDYNSALKSRLSISKDNSKNQVVLRMTNVDPVDTATYFCARAPGNRAMEYWGQGTVVTVSS
VL: SIVMTQTPKFLLVSAGDRITLTCKASQSVTNDVAWYQQKPGQSPKLLIYYASNRYTGVPDRFTGSGYGTDFTFTISTVQAEDLAVYFCQQDYRSPWTFGGGTKLEI
notes: Human IgG1 kappa, COS-7 supernatant; The VH entry may include the leader; also called HB227RHF+chL; RHF+chL
Regarding B1, in experiment [1], the binding result is recorded as “binds”.

B2: HB227RHC + HB227RKC humanized antibody (antibody, human IgG1, V domains shown)
VH: B1 VH with V24F
VL: DIVMTQSPSSLSASVGDRVTITCKASQSVTNDVAWYQQKPGKAPKLLIYYASNRYTGVPDRFSGSGYGTDFTLTISSLQPEDFATYFCQQDYRSPWTFGGGTKVEIKR
notes: Human IgG1 kappa, COS-7 supernatant; also called RHC+RKC
Take B2: in experiment [2], the binding result is given as “binds”.

B3: HB227RHF + HB227RKC humanized antibody (antibody, human IgG1, V domains shown)
VH: B1 VH
VL: B2 VL
notes: Human IgG1 kappa, COS-7 supernatant; also called RHF+RKC; humanized (RHF+RKC) antibody
Turning to B3, in experiment [1], the “EC50 (read off the curve)” value was roughly 0.2 µg/mL.

B4: HB227RHB + HB227RKC humanized antibody (antibody, human IgG1, V domains shown)
VH: B1 VH with V24F, G49A, N73T
VL: B2 VL
notes: Human IgG1 kappa, COS-7 supernatant; also called RHB+RKC
B4: the binding result in experiment [2] is recorded as “binds”.

B5: chH/RK (antibody, V domains shown)
VH: QVQLKESGPGLVAPSQSLSITCTVSGFSLSDYGVNWVRQIPGKGLEWLGIIWGDGRTDYNSALKSRLNISKDNSKSQVFLKMNSLKADDTARYYCARAPGNRAMEYWGQGTSVTVSS
VL: B2 VL
notes: also called chH+RKC; chimeric HB22.7 heavy chain (chH) + HB227RKC light chain
On to B5, for which, in experiment [2], the “EC50 (read off the curve)” value is roughly 0.2 µg/mL.

B6: HB227RHO + HB227RKC humanized antibody (antibody, human IgG1, V domains shown)
VH: QVQLEESGGGVVRPGRSLRLSCAASGFTLSDYGVNWIRQAPGKGLEWVGIIWGDGRTDYNSALKSRLTVSRNNSNNTLSLQMNSLTTEDTAVYYCVRAPGNRAMEYWGQGVLVTVS
VL: B2 VL
notes: Human IgG1 kappa, COS-7 supernatant; also called RHO+RKC
As to B6, the binding result in experiment [2] was “binds”.

B7: HB227RHOv2 + HB227RKC humanized antibody (antibody, human IgG1, V domains shown)
VH: B6 VH
VL: B2 VL
notes: Human IgG1 kappa, COS-7 supernatant; Carries all four VH back mutations: F29L, D30S, T49G, F67L; also called RHOv2+RKC
Turning to B7, in experiment [3], the binding result is reported as “binds”.

B8: HB227RHOv2A + HB227RKC humanized antibody (antibody, human IgG1, V domains shown)
VH: B6 VH with L29F
VL: B2 VL
notes: RHOv2 with the F29L back mutation removed; Human IgG1 kappa, COS-7 supernatant; also called HB227v2A
As for B8, the binding result in experiment [4] is recorded as “binds”.

B9: humanized anti-hCD22 antibody RHOv2ACD/RKA (HB227RHOv2ACD VH + HB227RKA VK) (antibody, human IgG1, V domains shown)
VH: B6 VH with L29F, G49T, L67F
VL: B2 VL with D60S, Y67S, F87Y
notes: Human IgG1 kappa expression vectors; It was labelled with Alexa-fluor in some cell assays; also called RHOvACD/RKA; RHOACD/RKA
In experiment [5], B9 showed a Kd of 22 nM, a koff of 0.00069 s⁻¹ and a kon of 32000 M⁻¹ s⁻¹.

B10: HB227RHOv2ACD + HB227RKC humanized antibody (antibody, human IgG1, V domains shown)
VH: B6 VH with L29F, G49T, L67F
VL: B2 VL
notes: Human IgG1 kappa, COS-7 supernatant; also called RHOv2ACD+RKC
For the molecule B10, the binding result in experiment [6] was “binds”.

B11: HB227RHOv2B + HB227RKC humanized antibody (antibody, human IgG1, V domains shown)
VH: B6 VH with S30D
VL: B2 VL
notes: RHOv2 with the D30S back mutation removed; Human IgG1 kappa, COS-7 supernatant; also called HB227v2B
In the case of B11, in experiment [7], the binding result is listed as “binds”.

B12: HB227RHOv2C + HB227RKC humanized antibody (antibody, human IgG1, V domains shown)
VH: B6 VH with G49T
VL: B2 VL
notes: RHOv2 with the T49G back mutation removed; Human IgG1 kappa, COS-7 supernatant; also called HB227v2C
Turning to B12, in experiment [8], the binding result is “binds”.
